Measurements from patent publication US20160220651A1 (UNIVERSITY OF PITTSBURGH OF THE COMMONWEALTH SYSTEM OF …, published 2016).

B1: NRP1 433-441 peptide GMLGMVSGL (peptide)
peptide: GMLGMVSGL
notes: Synthetic peptide (Fmoc), >96% pure
B2: NRP2 214-222 peptide DIWDGIPHV (peptide)
peptide: DIWDGIPHV
notes: as for B1
B3: DLK1 310-318 peptide ILGVLTSLV (peptide)
peptide: ILGVLTSLV
notes: as for B1
B4: DLK1 326-334 peptide FLNKCETWV (peptide)
peptide: FLNKCETWV
notes: as for B1
B5: NRP1 869-877 peptide VLLGAVCGV (peptide)
peptide: VLLGAVCGV
notes: as for B1
B6: HBB 105-114 peptide RLLGNVLVCV (peptide)
peptide: RLLGNVLVCV
notes: as for B1
B7: DLK1 269-277 peptide RLTPGVHEL (peptide)
peptide: RLTPGVHEL
notes: as for B1
B8: PDGFRβ 890-898 peptide ILLWEIFTL (peptide)
peptide: ILLWEIFTL
notes: Synthetic peptide (Fmoc), >96% pure; also called PDGFRβ (891)
B9: NRP2 328-336 peptide YLQVDLRFL (peptide)
peptide: YLQVDLRFL
notes: as for B1
B10: TEM1 691-700 peptide LLVPTCVFLV (peptide)
peptide: LLVPTCVFLV
notes: as for B1
B11: NRP1 331-339 peptide GLLRFVTAV (peptide)
peptide: GLLRFVTAV
notes: as for B1
B12: RGS5 5-13 peptide LAALPHSCL (peptide)
peptide: LAALPHSCL
notes: as for B1
B13: VEGFR1 770-778 peptide TLFWLLLTL (peptide)
peptide: TLFWLLLTL
notes: as for B1
B14: NG2 2238-2246 peptide LILPLLFYL (peptide)
peptide: LILPLLFYL
notes: as for B1
B15: VEGFR2 773-781 peptide VIAMFFWLL (peptide)
peptide: VIAMFFWLL
notes: as for B1
B16: NG2 770-778 peptide TLSNLSFPV (peptide)
peptide: TLSNLSFPV
notes: as for B1
B17: EphA2 883-891 peptide TLADFDPRV (peptide)
peptide: TLADFDPRV
notes: as for B1
B18: HBB 31-39 peptide RLLVVYPWT (peptide)
peptide: RLLVVYPWT
notes: as for B1
B19: NRP2 436-444 peptide NMLGMLSGL (peptide)
peptide: NMLGMLSGL
notes: as for B1

What follows are binders tested against T1, HLA-A2 complexes expressed by T2 cells (human) (assay: T2 class I stabilization assay, flow cytometry).
T1 construct: whole, on cells; also called HLA-A2.1 class I molecule

Binding result, binds:
B1
B2
B3
B4
B5
B6
B7
B8
B9
B10
B11
B12
B13
B14
B15
B16
B17
B18
B19
